# Data reported in patent US20220380455A1 (Alector, published 2022).
# Residue numbers refer to the chain shown, from its start. Several values for one entry are separate records, joined by “and”; a condition that tells them apart may be missing. Identical values can stand only once.
# T1: MS4A6A ECL2 peptide (human)
# T1 construct: also called MS4A6A ECL-2 peptides
# T1 peptide: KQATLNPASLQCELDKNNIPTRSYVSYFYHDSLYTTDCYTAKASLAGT
# T2: cynomolgus (cyno) MS4A6A (cynomolgus, UniProt Q9H2W1 1-246 (human entry))
# T2 construct: Full-length protein expressed in transfected HEK293, U937 or K562 cells (flow cytometry)
# T2 chain: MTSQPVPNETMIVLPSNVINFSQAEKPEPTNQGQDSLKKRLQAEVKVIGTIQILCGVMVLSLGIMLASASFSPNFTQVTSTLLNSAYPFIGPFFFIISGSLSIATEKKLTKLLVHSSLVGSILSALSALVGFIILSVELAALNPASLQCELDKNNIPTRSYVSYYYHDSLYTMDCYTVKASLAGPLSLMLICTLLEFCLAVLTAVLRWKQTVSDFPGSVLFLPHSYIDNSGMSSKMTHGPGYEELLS
# T3: MS4A6A ECL1 peptide (human)
# T3 construct: the description elsewhere gives ECL1 as 68-84; Human and cyno ECL1 are said to be identical
# T3 peptide: SASFSPNFTQVTSTLLNS
# B1: 6A-22 (antibody, V domains shown)
# VH: EVNLEESGGDLVQPGGSMKLSCLASGFTFSDAWMDWVRQSPEKGLEWVAEIKNKANNYVTFYAASVKGRFTISRDDSKSSVYLQMNNLRPEDTGIYFCTRGSVYGNWFPYWGQGTLVTVSA
# VL: DIVMSQSPSSLAVSAGEKVTMTCKSSQSLFNSRTRKNYLTWYQQKPGQSPKVLIYWASTRESGVPDRFTGSGSGTDFSLTISSVQADDLAVYYCKQSYNLLTFGAGTRLELK
# notes: Mouse hybridoma antibody, tested as hybridoma supernatant (mouse IgG, detected or captured via anti-mouse IgG Fc); also called anti-MS4A6A antibody 6A-22
# B2: 6A-15 (antibody, V domains shown)
# VH: EVMLVESGGGLVKPGGSLKLSCAASGFTFSSHAMSWVRQTPEKRLEWVATISSGDSYTYYPDSVKGRFTISRDNAKNTLYLQMTSLRSEDTAMYYCIRHIYYGNLYYAMDYWGQGTSVTVSS
# VL: DVLMTQTPLSLPVSLGDQASISCRSSQSIIHNNGNTYLEWYLQKPGQSPKLLIYKVSNRFSGVPDRFSGSGSGTYFTLKISRVEADDLGVYYCFQGSHVPWTFGGGTKLEIK
# notes: Mouse hybridoma antibody, tested as hybridoma supernatant (mouse IgG, detected or captured via anti-mouse IgG Fc); also called anti-MS4A6A antibody 6A-15
# B3: 6A-9 (antibody, V domains shown)
# VH: EVQLQQSGPELVKPGASVKISCKASGYSFTGYYIHWVKESHVKSLEWIGRINPKNGVTSYNQNFKDKASLTVDRSSSTAYMDLYSLTSEDSAVYYCASTFITGWGQGTSLTVSS
# VL: B2 VL with M4L, T7A, S28T, I30V, N32S, N33D, K55T, Y75D, D86E
# notes: Mouse hybridoma antibody, tested as hybridoma supernatant (mouse IgG, detected or captured via anti-mouse IgG Fc); also called anti-MS4A6A antibody 6A-9
# B4: 6A-18 (antibody, V domains shown)
# VH: B3 VH
# VL: B2 VL with M4L, T7A, S28T, I30V, N32S, N33D, K55T, Y75D, D86E
# notes: Mouse hybridoma antibody, tested as hybridoma supernatant (mouse IgG, detected or captured via anti-mouse IgG Fc); also called anti-MS4A6A antibody 6A-18
# B5: 6A-16 (antibody, V domains shown)
# VH: B3 VH with S109T, L110V
# VL: B2 VL with M4L, T7A, S28T, I30V, N32S, N33D, K55T, Y75D, D86E
# notes: Mouse hybridoma antibody, tested as hybridoma supernatant (mouse IgG, detected or captured via anti-mouse IgG Fc); also called anti-MS4A6A antibody 6A-16
# B6: 6A-13 (antibody, V domains shown)
# VH: EVKVVESGGGLVQPGGSLRLSCATAGFTFTDYYMTWVRQPPGKALEWLGFIRNKANGYTTEYNSSVKGRFTISRDNSRSILYLQMNTLRAEDSATYYCARSMDYWGQGTSVTVSS
# VL: NIVMTQSPNSMSMSVGERVTLSCKASENVGTYVSWYQQKPDQSPKLLIYGASNRYTGVPDRFTGGGSATDFTLTISSVQAEDLADYHCGQTYSFPYTFGGGTKLEIK
# notes: Mouse hybridoma antibody, tested as hybridoma supernatant (mouse IgG, detected or captured via anti-mouse IgG Fc); also called anti-MS4A6A antibody 6A-13
# B7: 6A-21 (antibody, V domains shown)
# VH: EVQLQQSGPELVKPGASVKMSCKASGYTFTDYFMKWVKQSHGKSLEWIGDINPKNGDTFYNQKFKGKATLTVDKSSSTAYMQLNSLTSEDSAVYYCARPGYFDVWGAGTTVTVSS
# VL: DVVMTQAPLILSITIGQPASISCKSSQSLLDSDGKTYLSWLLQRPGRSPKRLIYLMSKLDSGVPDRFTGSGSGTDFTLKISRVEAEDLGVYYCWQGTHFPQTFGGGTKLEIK
# notes: Mouse hybridoma antibody, tested as hybridoma supernatant (mouse IgG, detected or captured via anti-mouse IgG Fc); also called anti-MS4A6A antibody 6A-21
# B8: 6A-14 (antibody, V domains shown)
# VH: QVQLKQSGPGLVQPSQSLSITCTVSGFSLTTYGVHWVRQSPGKGLEWLGVIWSGGSTDYNAAFISRLNISKDNSKSQVFFKMNSLQANDTAIYYCARGYGSSYEYFDVWGAGTTVTVSS
# VL: DIVLTQSPASLAVSLGQRATISCRASESVDSYGNSFMHWYQQKPGQPPKLLIYRASNLESGIPARFSGSGSRTDFTLTINPVEADDVATYYCQQSNEDPLTFGAGTKLELK
# notes: Mouse hybridoma antibody, tested as hybridoma supernatant (mouse IgG, detected or captured via anti-mouse IgG Fc); also called anti-MS4A6A antibody 6A-14
# B9: 6A-12 (antibody, V domains shown)
# VH: EVQLQQSGPELVKPGASVKISCKASGYSFTGYYMHWVKQSPEDSLEWIGAINPSTGGSTYSQKFKDKATLTVDKSSSTAYMQLKSLTSEESAVYYCTRFDGYGYWGQGTLVTVSS
# VL: DIVMTQAAFSNPVTLGTSASISCRSSKSLLHSNGITYLYWYLQKPGQSLQLLIYQMSNLASGVPDRFSGSGSGTDFTLRISRVEAEDVGVYYCAQNLELPWTFGGGTKLEIK
# notes: Mouse hybridoma antibody, tested as hybridoma supernatant (mouse IgG, detected or captured via anti-mouse IgG Fc); also called anti-MS4A6A antibody 6A-12
# B10: 6A-11 (antibody, V domains shown)
# VH: EVQLQQSGPDLVKPGASVKISCKASGYSFTGYYIHWVKQSHIKSLEWIGRINPNNGATNYNQIFKDKATLTVDRSSSTAYMDLHSLTSEDSAVYYCVSTFITGWGQGTTLTVSS
# VL: B2 VL with M4L, S28T, I30V, N32S, N33D, K44R, Q47L, N58I, Y75D, D86E
# notes: Mouse hybridoma antibody, tested as hybridoma supernatant (mouse IgG, detected or captured via anti-mouse IgG Fc); also called anti-MS4A6A antibody 6A-11
# Molecular target: T1, MS4A6A ECL2 peptide
# Test: array SPR (Carterra MX-96), antibody captured on anti-mouse IgG-Fc, ECL2 peptide injected
# Protocol: Binding kinetic characterization of the purified antibodies to MS4A6A ECL1 and ECL2 peptides was performed by Carterra (South San Francisco, Calif.) using a proprietary array Surface Plasmon Resonance (SPR) instrument (MX-96) as follows. Antibodies were printed onto a CMD5OOD chip (Xantec #SPMX CMD500D lot #SC CMD500D0117.a Exp. 31.12.18) using the Continuous Flow Microspotter (CFM). First, the chip was activated with 100 mM MES pH 5.5, 100 μL EDC (133 mM final), 100 μL of S-NHS (33.3 mM final), for 7 minutes. A lawn of anti-mouse IgG-Fc (Jackson ImmunoResearch CAT #115-005-071 lot#130410) was injected for 15 minutes to establish a surface density of 10000-12000 RU, after which the chip surface was deactivated with 1 M ethanolamine at pH 8.5 for 10 minutes. Anti-MS4A6A antibodies in question, in the form of hybridoma supernatants diluted 2:1 with HBS-EP+buffer (Teknova CAT #H8022), were then printed as duplicates with a 20 minute and a 5 minutes print from the same sample solution. Control antibodies were diluted to 20 μ/ml for printing.
# To perform kinetic analysis, the peptides in question were prepared in HBS-EP+buffer with lmg/ml BSA at final assay concentrations of 2000 nM, 400 nM, 80 nM, 16 nmM, and 3.2 nM. These were then injected on the chip for five minutes, followed by a seven-minute dissociation period at 8 uL per second in a non-regenerative kinetic series. Duplicate measurements for each anti-MS4A6A antibody were taken to ensure reproducibility.
# Kₐ (association rate constant; Kₒₙ), Kd (dissociation rate constant; Koff) and KD (equilibrium constant) to MS4A6A ECL-2 peptides were calculated for each of the 23 anti-MS4A6A antibodies tested, the results of which are shown below in Table 5 (clones that bound too weakly to determine these values are denoted as N/A in Table 5).
Binder,Kd,koff,kon
B1,390 nM and 250 nM,0.0023 s⁻¹ and 0.0021 s⁻¹,6000 M⁻¹ s⁻¹ and 8400 M⁻¹ s⁻¹
B2,76 nM and 86 nM,0.00038 s⁻¹ and 0.00043 s⁻¹,5000 M⁻¹ s⁻¹
B3,290 nM,0.0011 s⁻¹,3900 M⁻¹ s⁻¹
B4,180 nM,0.00049 s⁻¹,2700 M⁻¹ s⁻¹
B5,180 nM and 150 nM,0.00097 s⁻¹ and 0.00049 s⁻¹,5500 M⁻¹ s⁻¹ and 3400 M⁻¹ s⁻¹
B6,140 nM and 180 nM,0.00066 s⁻¹ and 0.00092 s⁻¹,4800 M⁻¹ s⁻¹ and 5300 M⁻¹ s⁻¹
B7,200 nM,0.001 s⁻¹,5300 M⁻¹ s⁻¹
B8,170 nM and 150 nM,0.00096 s⁻¹ and 0.001 s⁻¹,5700 M⁻¹ s⁻¹ and 6900 M⁻¹ s⁻¹
B9,160 nM and 130 nM,0.00081 s⁻¹ and 0.00067 s⁻¹,5200 M⁻¹ s⁻¹ and 5100 M⁻¹ s⁻¹

# Molecular target: T2, cynomolgus (cyno) MS4A6A
# Test: flow cytometry, hybridoma supernatant, HEK293 transfected with cyno MS4A6A over parental HEK293; Screen 1
# Protocol: (§1) Positive clones were expanded and then rescreened for specificity against HEK293 cells overexpressing cyno MS4A6A and parental HEK293 cells. Briefly, previously prepared, cryopreserved transiently-transfected cells were labeled with LIVE/DEAD Fixable Aqua Dead Cell Stain Kit (ThermoFisher Scientific L34957) on ice for 30 minutes. After a wash with PBS, 2×10⁵ cells were aliquoted per well in 96-well round bottom plates and incubated with 50 μl of culture supernatant on ice for 30 mins. […] Following this secondary incubation, the cells were again washed twice with ice-cold FACS buffer and resuspended in a final volume of 200 μl of FACS buffer. Analysis was performed on a FACS Canto system (BD Biosciences), with sort gates drawn to exclude dead (Aqua-positive) cells. […] The screen was repeated twice, and the numbers reported here represent the ratio of mean fluorescence level in transfected cells over parental cells.
row,Binder,ratio of APC MFI on MS4A6A+/HEK parental cells
1,B1,175 ratio
2,B2,3.8 ratio
3,B3,12.6 ratio
4,B4,4.1 ratio
5,B10,8.6 ratio
6,B5,14.4 ratio
7,B6,24.8 ratio
8,B7,71.8 ratio
9,B8,20.2 ratio
10,B9,40.3 ratio

# Molecular target: T3, MS4A6A ECL1 peptide
# Test: peptide ELISA, hybridoma supernatant
# Protocol: Anti-MS4A6A hybridoma supernatants were tested for binding to MS4A6A peptides derived from ECL1 (amino acid residues 68-85 of human MS4A6A of SEQ ID NO:1) and ECL2 (amino acid residues 138-185 of human MS4A6A of SEQ ID NO:1) sequences, using an enzyme-linked immunosorbent assay (ELISA). Briefly, 96-well polystyrene plates were coated with 1-10 μg/mL of synthetic free or BSA-conjugated peptides in coating buffer (0.05M carbonate buffer, pH9.6, Millipore Sigma C3041) overnight at 4° C. Coated plates were then blocked with ELISA diluent (PBS+0.5% BSA+0.05% Tween20) for 1-hour, washed 3×300 μL in PBST (PBS+0.05% Tween20, Thermo 28352), and then the antibodies were added at various dilutions (100-1000×) in ELISA diluent. After 30 mins incubation (room temperature, with shaking), the plates were washed 3×300 μl in PBST. A secondary anti-mouse HRP antibody (Jackson Immunoresearch CAT #115-035-003) was added at a 1:1000 dilution in ELISA diluent (50 μL/well) and incubated for 30 minutes at room temperature with shaking. After a final set of washes (3×300 μl in PBST), 50 μL of TMB substrate (BioFx TMBW-1000-01) was added and the reaction was then quenched after 5-10 mins with 50 μL of stop solution (BioFx BSTP-1000-01). The quenched reaction wells were detected for absorbance at […] with a BioTek Synergy Microplate Reader using GENS 2.04 software.
row,Binder,binding result
1,B1,no binding
2,B2,no binding
3,B3,no binding
4,B4,no binding
5,B10,no binding
6,B5,no binding
7,B6,no binding
8,B7,no binding
9,B8,no binding
10,B9,no binding

# Molecular target: T2, cynomolgus (cyno) MS4A6A
# Test: flow cytometry, hybridoma supernatant, HEK293 transfected with cyno MS4A6A over parental HEK293; Screen 2
# Protocol: as §1
row,Binder,ratio of APC MFI on MS4A6A+/HEK parental cells
1,B1,68.8 ratio
2,B2,8.4 ratio
3,B3,84 ratio
4,B4,20.3 ratio
5,B10,61.7 ratio
6,B5,28.5 ratio
7,B6,30.3 ratio
8,B7,136 ratio
9,B8,59.1 ratio
10,B9,45.5 ratio
